# Experimental data: the supplement of paper PMC10567573
# B1: FBXO3 (parent)
# chain: HDPLWRRHCKKYWLISEEEKTQKN
# B2: SPATS1 (parent)
# chain: YPEQSKGFHKAGSMLPPVNFSIVP
# Variants of: B1
# Experiment: protein stability index of a GFP-peptide fusion (GPS, HEK-293T) (PSI 1-6); higher = more stable
# Details: c terminus: a fixed tail appended
# 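Also: lentivirally expressed fusions sorted by FACS into six bins by GFP to DsRed ratio, PSI derived from sequencing read proportions per bin multiplied by bin number.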
row,Variant,protein stability index
1,HDPLWRRHCKKYWLISEEEWTQKN,2.33
2,HDPLWRRHCKKYWLISEEEATQKN,2.85
3,HDPLWRRHCKKYWLISEEEDTQKN,3.35
4,HDPLWRRHCKKYWLISEEEGTQKN,3.51
5,HDPLWRRHCKKYWLISEEEMTQKN,3.03
6,HDPLWRRHCKKYWLISEEEFTQKN,2.6
7,HDPLWRRHCKKYWLISEEELTQKN,2.88
8,HDPLWRRHCKKYWLISEEEITQKN,2.58
9,HDPLWRRHCKKYWLISEEEVTQKN,3.29
10,HDPLWRRHCKKYWLISEEEHTQKN,2.95
11,HDPLWRRHCKKYWLISEEEPTQKN,2.91
12,HDPLWRRHCKKYWLISEEETTQKN,2.89
13,HDPLWRRHCKKYWLISEEEETQKN,3.64
14,HDPLWRRHCKKYWLISEEEYTQKN,2.71
15,HDPLWRRHCKKYWLISEEEQTQKN,3.66
16,HDPLWRRHCKKYWLISEEENTQKN,3.24
17,HDPLWRRHCKKYWLISEEESTQKN,3.2
18,HDPLWRRHCKKYWLISEEERTQKN,3.38
19,HDPLWRRHCKKYWLISEEECTQKN,2.9
20,HDPLWRRHCKKYWLISEEYKTQKN,2.54
21,HDPLWRRHCKKYWLISEEVKTQKN,2.67
22,HDPLWRRHCKKYWLISEEDKTQKN,3.17
23,HDPLWRRHCKKYWLISEEPKTQKN,2.98

row,Variant,protein stability index
1,HDPLWRRHCKKYWLISEECKTQKN,2.84
2,HDPLWRRHCKKYWLISEEMKTQKN,2.66
3,HDPLWRRHCKKYWLISEETKTQKN,2.71
4,HDPLWRRHCKKYWLISEELKTQKN,2.35
5,HDPLWRRHCKKYWLISEENKTQKN,2.88
6,HDPLWRRHCKKYWLISEEHKTQKN,2.91
7,HDPLWRRHCKKYWLISEEQKTQKN,3.26
8,HDPLWRRHCKKYWLISEERKTQKN,2.94
9,HDPLWRRHCKKYWLISEEKKTQKN,2.92
10,HDPLWRRHCKKYWLISEEGKTQKN,3.05
11,HDPLWRRHCKKYWLISEESKTQKN,3.05
12,HDPLWRRHCKKYWLISEEWKTQKN,1.9
13,HDPLWRRHCKKYWLISEEIKTQKN,2.38
14,HDPLWRRHCKKYWLISEEAKTQKN,2.83
15,HDPLWRRHCKKYWLISEEFKTQKN,2.04
16,HDPLWRRHCKKYWLISEEEKTPKN,3
17,HDPLWRRHCKKYWLISEEEKTMKN,3.01
18,HDPLWRRHCKKYWLISEEEKTGKN,3.18
19,HDPLWRRHCKKYWLISEEEKTSKN,2.97
20,HDPLWRRHCKKYWLISEEEKTDKN,3.35
21,HDPLWRRHCKKYWLISEEEKTLKN,2.57
22,HDPLWRRHCKKYWLISEEEKTFKN,2.56
23,HDPLWRRHCKKYWLISEEEKTNKN,3.19

row,Variant,protein stability index
1,HDPLWRRHCKKYWLISEEEKTTKN,3.42
2,HDPLWRRHCKKYWLISEEEKTRKN,2.95
3,HDPLWRRHCKKYWLISEEEKTHKN,2.99
4,HDPLWRRHCKKYWLISEEEKTVKN,3.44
5,HDPLWRRHCKKYWLISEEEKTKKN,2.89
6,HDPLWRRHCKKYWLISEEEKTEKN,3.42
7,HDPLWRRHCKKYWLISEEEKTWKN,2.05
8,HDPLWRRHCKKYWLISEEEKTAKN,3.29
9,HDPLWRRHCKKYWLISEEEKTYKN,2.58
10,HDPLWRRHCKKYWLISEEEKTIKN,2.49
11,HDPLWRRHCKKYWLISEEEKTCKN,2.79
12,HDPLWRRHCKKYWLISEEEKCQKN,3.39
13,HDPLWRRHCKKYWLISEEEKYQKN,2.74
14,HDPLWRRHCKKYWLISEEEKMQKN,2.63
15,HDPLWRRHCKKYWLISEEEKFQKN,2.64
16,HDPLWRRHCKKYWLISEEEKDQKN,3.25
17,HDPLWRRHCKKYWLISEEEKQQKN,3.21
18,HDPLWRRHCKKYWLISEEEKRQKN,2.83
19,HDPLWRRHCKKYWLISEEEKNQKN,2.95
20,HDPLWRRHCKKYWLISEEEKAQKN,2.84
21,HDPLWRRHCKKYWLISEEEKKQKN,2.94
22,HDPLWRRHCKKYWLISEEEKSQKN,3.03
23,HDPLWRRHCKKYWLISEEEKPQKN,3.32

row,Variant,protein stability index
1,HDPLWRRHCKKYWLISEEEKHQKN,2.86
2,HDPLWRRHCKKYWLISEEEKIQKN,3.29
3,HDPLWRRHCKKYWLISEEEKLQKN,2.76
4,HDPLWRRHCKKYWLISEEEKVQKN,2.99
5,HDPLWRRHCKKYWLISEEEKWQKN,2.44
6,HDPLWRRHCKKYWLISEEEKGQKN,2.91
7,HDPLWRRHCKKYWLISEEEKEQKN,3.31
8,HDPLWRRHCKKYWLISEEEKTQKS,2.91
9,HDPLWRRHCKKYWLISEEEKTQKP,3.87
10,HDPLWRRHCKKYWLISEEEKTQKI,2.48
11,HDPLWRRHCKKYWLISEEEKTQKC,2.73
12,HDPLWRRHCKKYWLISEEEKTQKG,2.61
13,HDPLWRRHCKKYWLISEEEKTQKW,2.47
14,HDPLWRRHCKKYWLISEEEKTQKK,2.79
15,HDPLWRRHCKKYWLISEEEKTQKV,3.02
16,HDPLWRRHCKKYWLISEEEKTQKE,3.12
17,HDPLWRRHCKKYWLISEEEKTQKL,2.81
18,HDPLWRRHCKKYWLISEEEKTQKT,3.47
19,HDPLWRRHCKKYWLISEEEKTQKA,2.9
20,HDPLWRRHCKKYWLISEEEKTQKF,2.47
21,HDPLWRRHCKKYWLISEEEKTQKY,2.44
22,HDPLWRRHCKKYWLISEEEKTQKQ,3.43
23,HDPLWRRHCKKYWLISEEEKTQKH,2.99

row,Variant,protein stability index
1,HDPLWRRHCKKYWLISEEEKTQKR,3.22
2,HDPLWRRHCKKYWLISEEEKTQKD,3.68
3,HDPLWRRHCKKYWLISEEEKTQKM,3.4
4,HDPLWRRHCKKYWLISYEEKTQKN,2.62
5,HDPLWRRHCKKYWLISWEEKTQKN,2.37
6,HDPLWRRHCKKYWLISEEEKTQFN,2.85
7,HDPLWRRHCKKYWLISEEEKTQNN,3.05
8,HDPLWRRHCKKYWLISEEEKTQQN,3.27
9,HDPLWRRHCKKYWLISEEEKTQTN,3.31
10,HDPLWRRHCKKYWLISEEEKTQMN,3.19
11,HDPLWRRHCKKYWLISEEEKTQPN,3.11
12,HDPLWRRHCKKYWLISEEEKTQYN,2.91
13,HDPLWRRHCKKYWLISEEEKTQCN,3.09
14,HDPLWRRHCKKYWLISEEEKTQDN,3.95
15,HDPLWRRHCKKYWLISEEEKTQHN,3.24
16,HDPLWRRHCKKYWLISEEEKTQIN,2.93
17,HDPLWRRHCKKYWLISEEEKTQLN,2.94
18,HDPLWRRHCKKYWLISEEEKTQRN,3.16
19,HDPLWRRHCKKYWLISEEEKTQSN,3.38
20,HDPLWRRHCKKYWLISEEEKTQEN,3.8
21,HDPLWRRHCKKYWLISEEEKTQWN,2.7
22,HDPLWRRHCKKYWLISEEEKTQGN,3.65
23,HDPLWRRHCKKYWLISEEEKTQAN,3.34

row,Variant,protein stability index
1,HDPLWRRHCKKYWLISEEEKTQVN,3.6
2,HDPLWRRHCKKYWLISEMEKTQKN,2.28
3,HDPLWRRHCKKYWLISEAEKTQKN,2.55
4,HDPLWRRHCKKYWLISETEKTQKN,2.89
5,HDPLWRRHCKKYWLISEYEKTQKN,2.31
6,HDPLWRRHCKKYWLISEWEKTQKN,2.38
7,HDPLWRRHCKKYWLISESEKTQKN,3.01
8,HDPLWRRHCKKYWLISEQEKTQKN,2.94
9,HDPLWRRHCKKYWLISENEKTQKN,3.15
10,HDPLWRRHCKKYWLISEDEKTQKN,3.2
11,HDPLWRRHCKKYWLISELEKTQKN,2.46
12,HDPLWRRHCKKYWLISEVEKTQKN,2.5
13,HDPLWRRHCKKYWLISEIEKTQKN,2.46
14,HDPLWRRHCKKYWLISEPEKTQKN,2.91
15,HDPLWRRHCKKYWLISEGEKTQKN,2.75
16,HDPLWRRHCKKYWLISEHEKTQKN,3.3
17,HDPLWRRHCKKYWLISEFEKTQKN,2.55
18,HDPLWRRHCKKYWLISEKEKTQKN,3.04
19,HDPLWRRHCKKYWLISECEKTQKN,2.95
20,HDPLWRRHCKKYWLISEREKTQKN,2.81

# Variants of: B2
# Experiment: as above
# Details: c terminus: a fixed tail appended
row,Variant,protein stability index
1,YPHQSKGFHKAGSMLPPVNFSIVP,1.81
2,YPQQSKGFHKAGSMLPPVNFSIVP,2.5
3,YPPQSKGFHKAGSMLPPVNFSIVP,2.09
4,YPRQSKGFHKAGSMLPPVNFSIVP,1.64
5,YPMQSKGFHKAGSMLPPVNFSIVP,2.14
6,YPLQSKGFHKAGSMLPPVNFSIVP,1.9
7,YPGQSKGFHKAGSMLPPVNFSIVP,1.82
8,YPSQSKGFHKAGSMLPPVNFSIVP,2
9,YPKQSKGFHKAGSMLPPVNFSIVP,1.8
10,YPNQSKGFHKAGSMLPPVNFSIVP,2.39
11,YPDQSKGFHKAGSMLPPVNFSIVP,2.24
12,YPCQSKGFHKAGSMLPPVNFSIVP,2.35
13,YPIQSKGFHKAGSMLPPVNFSIVP,2.12
14,YPAQSKGFHKAGSMLPPVNFSIVP,1.78
15,YPFQSKGFHKAGSMLPPVNFSIVP,2.11
16,APEQSKGFHKAGSMLPPVNFSIVP,3.35
17,RPEQSKGFHKAGSMLPPVNFSIVP,3.04
18,VPEQSKGFHKAGSMLPPVNFSIVP,3.31
19,HPEQSKGFHKAGSMLPPVNFSIVP,3.18
20,FPEQSKGFHKAGSMLPPVNFSIVP,2.03
21,LPEQSKGFHKAGSMLPPVNFSIVP,2.66
22,IPEQSKGFHKAGSMLPPVNFSIVP,2.77
23,WPEQSKGFHKAGSMLPPVNFSIVP,2.69
24,SPEQSKGFHKAGSMLPPVNFSIVP,3.36
25,CPEQSKGFHKAGSMLPPVNFSIVP,2.95
26,KPEQSKGFHKAGSMLPPVNFSIVP,3.38
27,EPEQSKGFHKAGSMLPPVNFSIVP,3.8

row,Variant,protein stability index
1,NPEQSKGFHKAGSMLPPVNFSIVP,3.52
2,DPEQSKGFHKAGSMLPPVNFSIVP,3.82
3,TPEQSKGFHKAGSMLPPVNFSIVP,3.22
4,MPEQSKGFHKAGSMLPPVNFSIVP,2.97
5,QPEQSKGFHKAGSMLPPVNFSIVP,3.43
6,GPEQSKGFHKAGSMLPPVNFSIVP,3.26
7,PPEQSKGFHKAGSMLPPVNFSIVP,3.33
8,YIEQSKGFHKAGSMLPPVNFSIVP,1.83
9,YAEQSKGFHKAGSMLPPVNFSIVP,1.85
10,YEEQSKGFHKAGSMLPPVNFSIVP,3.33
11,YHEQSKGFHKAGSMLPPVNFSIVP,2.04
12,YNEQSKGFHKAGSMLPPVNFSIVP,2.47
13,YVEQSKGFHKAGSMLPPVNFSIVP,2.62
14,YGEQSKGFHKAGSMLPPVNFSIVP,1.8
15,YFEQSKGFHKAGSMLPPVNFSIVP,1.77
16,YSEQSKGFHKAGSMLPPVNFSIVP,2.43
17,YKEQSKGFHKAGSMLPPVNFSIVP,2.87
18,YCEQSKGFHKAGSMLPPVNFSIVP,1.62
19,YLEQSKGFHKAGSMLPPVNFSIVP,2.29
20,YMEQSKGFHKAGSMLPPVNFSIVP,2.48
21,YDEQSKGFHKAGSMLPPVNFSIVP,3.19
22,YREQSKGFHKAGSMLPPVNFSIVP,2.57
23,YQEQSKGFHKAGSMLPPVNFSIVP,2.51
24,YWEQSKGFHKAGSMLPPVNFSIVP,1.45
25,YTEQSKGFHKAGSMLPPVNFSIVP,1.77
26,YYEQSKGFHKAGSMLPPVNFSIVP,1.91
